Columns and labels:
[1] = molecular target: T1, Human Papillomavirus 1a L1 (Human Papillomavirus 1a, UniProt P03099 1-508); assay: Y2H; INT ID 439
T1 construct: also called HPV 1a L1; cbe_252016
T1 sequence: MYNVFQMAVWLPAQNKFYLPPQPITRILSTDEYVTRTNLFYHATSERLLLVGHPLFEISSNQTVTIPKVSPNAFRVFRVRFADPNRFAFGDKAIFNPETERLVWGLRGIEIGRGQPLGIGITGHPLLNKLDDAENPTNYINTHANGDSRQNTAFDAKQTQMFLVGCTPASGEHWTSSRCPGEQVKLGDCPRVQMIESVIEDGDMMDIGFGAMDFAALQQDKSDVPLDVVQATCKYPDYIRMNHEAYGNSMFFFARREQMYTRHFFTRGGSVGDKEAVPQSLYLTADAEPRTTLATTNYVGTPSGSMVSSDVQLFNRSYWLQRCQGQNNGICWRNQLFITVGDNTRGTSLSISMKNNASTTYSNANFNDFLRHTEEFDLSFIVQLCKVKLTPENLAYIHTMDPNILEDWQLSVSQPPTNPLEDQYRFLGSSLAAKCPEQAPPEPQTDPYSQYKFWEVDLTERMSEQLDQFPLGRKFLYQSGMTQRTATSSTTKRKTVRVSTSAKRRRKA

[2] = molecular target: T1, Human Papillomavirus 1a L1; assay: Y2H; INT ID 440
[3] = molecular target: T2, hexokinase 1 (human, UniProt P19367 22-917); assay: Y2H; INT ID 425
T2 construct: also called HK1; cbe_3665307
T2 sequence: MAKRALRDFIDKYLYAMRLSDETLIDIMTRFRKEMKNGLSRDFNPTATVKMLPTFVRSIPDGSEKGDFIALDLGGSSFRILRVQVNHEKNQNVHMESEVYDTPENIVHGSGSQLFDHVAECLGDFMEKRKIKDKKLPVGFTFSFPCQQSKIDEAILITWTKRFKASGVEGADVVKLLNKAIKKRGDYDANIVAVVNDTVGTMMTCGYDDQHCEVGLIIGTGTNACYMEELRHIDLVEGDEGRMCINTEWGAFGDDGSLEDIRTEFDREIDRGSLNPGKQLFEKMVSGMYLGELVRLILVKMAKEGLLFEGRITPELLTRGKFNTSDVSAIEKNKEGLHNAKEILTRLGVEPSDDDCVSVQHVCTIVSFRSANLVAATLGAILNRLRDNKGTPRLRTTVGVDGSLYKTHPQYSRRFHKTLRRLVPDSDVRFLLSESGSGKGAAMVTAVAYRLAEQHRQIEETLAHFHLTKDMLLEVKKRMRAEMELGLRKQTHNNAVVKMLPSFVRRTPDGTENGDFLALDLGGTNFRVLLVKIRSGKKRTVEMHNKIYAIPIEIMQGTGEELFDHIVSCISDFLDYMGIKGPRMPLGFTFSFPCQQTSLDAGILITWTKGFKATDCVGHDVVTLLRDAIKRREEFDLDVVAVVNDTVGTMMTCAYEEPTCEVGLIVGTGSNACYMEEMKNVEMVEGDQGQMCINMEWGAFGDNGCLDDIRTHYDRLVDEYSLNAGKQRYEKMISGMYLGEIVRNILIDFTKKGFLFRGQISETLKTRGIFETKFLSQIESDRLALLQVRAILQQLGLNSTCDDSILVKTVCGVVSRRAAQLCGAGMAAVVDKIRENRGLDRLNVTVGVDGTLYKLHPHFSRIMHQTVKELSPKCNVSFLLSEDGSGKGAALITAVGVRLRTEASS

[4] = molecular target: T3, exportin 1 (CRM1 homolog, yeast) (human, UniProt O14980 1-1071); assay: Y2H; INT ID 424
T3 construct: also called XPO1; cbe_3621798

[5] = molecular target: T4, ANXA2 (human, UniProt P07355 2-339); assay: Y2H; INT ID 426
T4 construct: also called cbe_4267867

[6] = molecular target: T5, adaptor-related protein complex 2, mu 1 subunit (human, UniProt Q96CW1 1-435); assay: Y2H; INT ID 430
T5 construct: also called AP2M1; cbe_3789063

[7] = molecular target: T6, phosphoglycerate mutase 1 (brain) (human, UniProt P18669 2-254); assay: Y2H; INT ID 432
T6 construct: also called PGAM1; cbe_3820530
T6 sequence: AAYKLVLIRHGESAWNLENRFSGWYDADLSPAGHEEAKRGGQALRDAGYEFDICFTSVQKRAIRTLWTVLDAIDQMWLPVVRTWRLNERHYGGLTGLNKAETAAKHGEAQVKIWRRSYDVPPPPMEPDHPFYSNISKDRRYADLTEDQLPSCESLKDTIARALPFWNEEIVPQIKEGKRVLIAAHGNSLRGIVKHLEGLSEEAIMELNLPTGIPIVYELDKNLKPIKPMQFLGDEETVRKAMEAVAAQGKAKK

[8] = molecular target: T7, Homo sapiens QUAKING isoform 5 (QUAKING) (human, UniProt Q96PU8 5-341); assay: Y2H; INT ID 431
T7 construct: also called cbe_3810032
T7 sequence: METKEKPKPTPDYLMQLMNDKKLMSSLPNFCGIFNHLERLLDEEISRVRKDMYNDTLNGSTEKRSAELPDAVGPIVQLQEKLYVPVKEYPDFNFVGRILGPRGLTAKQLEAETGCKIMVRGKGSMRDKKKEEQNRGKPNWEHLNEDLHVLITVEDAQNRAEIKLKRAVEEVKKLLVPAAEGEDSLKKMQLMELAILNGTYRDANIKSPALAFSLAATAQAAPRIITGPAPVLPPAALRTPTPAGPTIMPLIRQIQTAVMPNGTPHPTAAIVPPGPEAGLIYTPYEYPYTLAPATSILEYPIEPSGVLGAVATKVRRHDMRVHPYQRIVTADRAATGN

[9] = molecular target: T8, tissue factor pathway inhibitor (lipoprotein-associated coagulation inhibitor) (human, UniProt P10646 29-304); assay: Y2H; INT ID 309
T8 construct: also called TFPI; cbe_3834015
T8 sequence: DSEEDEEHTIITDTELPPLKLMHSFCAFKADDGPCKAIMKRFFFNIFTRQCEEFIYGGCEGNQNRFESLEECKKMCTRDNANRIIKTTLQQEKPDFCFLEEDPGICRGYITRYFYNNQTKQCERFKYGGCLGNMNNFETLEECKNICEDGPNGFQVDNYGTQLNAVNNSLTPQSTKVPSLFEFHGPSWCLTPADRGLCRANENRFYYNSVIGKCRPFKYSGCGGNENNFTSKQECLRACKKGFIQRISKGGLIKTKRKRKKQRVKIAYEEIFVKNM

[10] = molecular target: T9, RBP4 (human, UniProt P02753 19-201); assay: Y2H; INT ID 433
T9 construct: also called cbe_4265947

[11] = molecular target: T1, Human Papillomavirus 1a L1; assay: Y2H; INT ID 438
[12] = molecular target: T10, RPS26 (human, UniProt P62854 2-115); assay: Y2H; INT ID 99
T10 construct: also called cbe_4270015

[13] = molecular target: T11, STX4A (human, UniProt Q12846 1-297); assay: Y2H (told in text)
T11 construct: also called syntaxin 4; cbe_4270186
T11 sequence: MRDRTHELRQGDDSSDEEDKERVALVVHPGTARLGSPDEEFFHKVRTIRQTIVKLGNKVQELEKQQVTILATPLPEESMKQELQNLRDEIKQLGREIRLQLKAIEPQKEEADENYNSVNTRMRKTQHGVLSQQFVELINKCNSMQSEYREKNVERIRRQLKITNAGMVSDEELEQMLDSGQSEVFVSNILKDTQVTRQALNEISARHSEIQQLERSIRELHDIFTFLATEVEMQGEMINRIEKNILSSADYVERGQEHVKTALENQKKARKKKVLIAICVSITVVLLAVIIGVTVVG

[14] = molecular target: T12, PSMC1 (human, UniProt P62191 2-440); assay: Y2H (told in text)
T12 construct: also called proteosome 26S subunit; proteosome subunit PMSC1

[15] = molecular target: T13, PTPN2 (human, UniProt P17706 1-415); assay: Y2H; INT ID 160
T13 construct: also called cbe_2576474
T13 sequence (looked up): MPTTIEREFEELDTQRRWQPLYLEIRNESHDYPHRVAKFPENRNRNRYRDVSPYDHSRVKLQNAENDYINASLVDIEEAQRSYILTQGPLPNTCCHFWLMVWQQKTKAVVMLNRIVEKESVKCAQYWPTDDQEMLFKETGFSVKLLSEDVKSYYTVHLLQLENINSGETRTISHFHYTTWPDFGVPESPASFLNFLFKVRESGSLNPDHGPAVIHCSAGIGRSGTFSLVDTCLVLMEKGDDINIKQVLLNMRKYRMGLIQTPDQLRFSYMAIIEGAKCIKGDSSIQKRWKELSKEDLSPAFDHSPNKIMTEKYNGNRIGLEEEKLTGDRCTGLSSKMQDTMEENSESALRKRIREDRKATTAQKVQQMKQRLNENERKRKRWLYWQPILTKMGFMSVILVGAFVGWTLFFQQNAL

T12 sequence (P62191 2-440 limits assumed): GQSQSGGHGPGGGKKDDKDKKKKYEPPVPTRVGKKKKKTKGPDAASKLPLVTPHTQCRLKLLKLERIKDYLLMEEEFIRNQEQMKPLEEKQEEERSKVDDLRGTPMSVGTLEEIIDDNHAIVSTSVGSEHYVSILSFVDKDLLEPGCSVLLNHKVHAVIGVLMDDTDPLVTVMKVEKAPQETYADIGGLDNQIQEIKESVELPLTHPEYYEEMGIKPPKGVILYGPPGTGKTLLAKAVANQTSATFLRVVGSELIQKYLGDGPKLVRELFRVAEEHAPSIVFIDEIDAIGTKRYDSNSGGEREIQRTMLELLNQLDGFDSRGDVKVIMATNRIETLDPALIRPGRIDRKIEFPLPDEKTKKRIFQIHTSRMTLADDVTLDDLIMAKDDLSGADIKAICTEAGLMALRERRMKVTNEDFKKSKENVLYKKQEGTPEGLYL
T5 sequence (Q96CW1 whole entry, one chain of several): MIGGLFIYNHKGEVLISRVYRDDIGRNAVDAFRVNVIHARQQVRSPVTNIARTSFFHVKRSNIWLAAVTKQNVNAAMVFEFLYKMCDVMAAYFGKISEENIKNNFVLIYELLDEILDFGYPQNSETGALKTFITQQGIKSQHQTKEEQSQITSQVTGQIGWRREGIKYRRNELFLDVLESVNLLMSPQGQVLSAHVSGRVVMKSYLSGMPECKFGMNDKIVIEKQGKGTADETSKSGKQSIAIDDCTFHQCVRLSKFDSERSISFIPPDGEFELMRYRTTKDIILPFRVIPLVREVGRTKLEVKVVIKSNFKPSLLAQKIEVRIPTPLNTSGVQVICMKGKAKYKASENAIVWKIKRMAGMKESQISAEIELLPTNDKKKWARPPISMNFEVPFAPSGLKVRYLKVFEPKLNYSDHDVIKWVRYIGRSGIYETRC
T3 sequence (O14980 whole entry): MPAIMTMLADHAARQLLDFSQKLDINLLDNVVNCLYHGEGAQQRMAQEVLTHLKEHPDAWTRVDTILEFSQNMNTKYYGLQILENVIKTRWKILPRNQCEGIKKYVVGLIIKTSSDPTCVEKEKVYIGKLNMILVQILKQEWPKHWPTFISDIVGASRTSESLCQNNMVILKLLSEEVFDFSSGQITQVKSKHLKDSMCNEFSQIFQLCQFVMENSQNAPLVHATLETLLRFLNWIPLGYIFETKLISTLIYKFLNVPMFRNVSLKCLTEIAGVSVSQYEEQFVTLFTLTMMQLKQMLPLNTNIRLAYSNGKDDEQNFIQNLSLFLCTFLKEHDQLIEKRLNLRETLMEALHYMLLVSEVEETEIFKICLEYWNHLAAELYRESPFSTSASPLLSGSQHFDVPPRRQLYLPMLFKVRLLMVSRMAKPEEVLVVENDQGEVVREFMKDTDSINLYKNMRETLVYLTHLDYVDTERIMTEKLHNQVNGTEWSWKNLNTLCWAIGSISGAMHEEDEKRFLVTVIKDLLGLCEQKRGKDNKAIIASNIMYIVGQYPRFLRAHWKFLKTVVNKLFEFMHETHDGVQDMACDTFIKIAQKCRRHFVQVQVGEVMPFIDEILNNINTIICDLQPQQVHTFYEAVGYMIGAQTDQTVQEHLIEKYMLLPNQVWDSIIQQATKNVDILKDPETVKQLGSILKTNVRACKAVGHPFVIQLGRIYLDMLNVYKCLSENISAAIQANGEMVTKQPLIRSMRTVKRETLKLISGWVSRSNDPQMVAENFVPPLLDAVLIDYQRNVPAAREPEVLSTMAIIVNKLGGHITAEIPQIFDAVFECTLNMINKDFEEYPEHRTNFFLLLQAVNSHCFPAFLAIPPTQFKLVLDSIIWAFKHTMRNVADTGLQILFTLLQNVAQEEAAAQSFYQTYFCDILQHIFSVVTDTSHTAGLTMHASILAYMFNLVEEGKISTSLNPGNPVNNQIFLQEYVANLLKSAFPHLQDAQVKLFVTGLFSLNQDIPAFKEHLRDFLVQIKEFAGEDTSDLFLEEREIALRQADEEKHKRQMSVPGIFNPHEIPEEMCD
T4 sequence (P07355 2-339 limits assumed): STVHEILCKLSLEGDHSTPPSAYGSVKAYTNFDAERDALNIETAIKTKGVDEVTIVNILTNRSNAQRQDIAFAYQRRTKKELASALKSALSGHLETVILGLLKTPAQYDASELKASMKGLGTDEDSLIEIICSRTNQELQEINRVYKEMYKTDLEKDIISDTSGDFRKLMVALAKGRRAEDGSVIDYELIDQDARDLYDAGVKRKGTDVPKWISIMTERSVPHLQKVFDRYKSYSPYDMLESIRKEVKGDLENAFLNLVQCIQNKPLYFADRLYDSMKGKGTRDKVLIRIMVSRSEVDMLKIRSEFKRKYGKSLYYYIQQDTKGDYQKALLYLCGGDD

B1: NR1H2 (receptor)
chain: MSSPTTSSLDTPLPGNGPPQPGAPSSSPTVKEEGPEPWPGGPDPDVPGTDEASSACSTDWVIPDPEEEPERKRKKGPAPKMLGHELCRVCGDKASGFHYNVLSCEGCKGFFRRSVVRGGARRYACRGGGTCQMDAFMRRKCQQCRLRKCKEAGMREQCVLSEEQIRKKKIRKQQQESQSQSQSPVGPQGSSSSASGPGASPGGSEAGSQGSGEGEGVQLTAAQELMIQQLVAAQLQCNKRSFSDQPKVTPWPLGADPQSRDARQQRFAHFTELAIISVQEIVDFAKQVPGFLQLGREDQIALLKASTIEIMLLETARRYNHETECITFLKDFTYSKDDFHRAGLQVEFINPIFEFSRAMRRLGLDDAEYALLIAINIFSADRPNVQEPGRVEALQQPYVEALLSYTRIKRPQDQLRFPRMLMKLVSLRTLSSVHSEQVFALRLQDKKLPPLLSEIWDVHE
notes: also called cbe_4268726
binding result [1]: binds

B2: SCGB1A1 (other)
chain: EICPSFQRVIETLLMDTPSSYEAAMELFSPDQDMREAGAQLKKLVDTLPQKPRESIIKLMEKIAQSSLCN
notes: also called cbe_4296923
binding result [2]: binds

B3: Human Papillomavirus 1a E6 (other)
chain: MATPIRTVRQLSESLCIPYIDVLLPCNFCNYFLSNAEKLLFDHFDLHLVWRDNLVFGCCQGCARTVSLLEFVLYYQESYEVPEIEEILDRPLLQIELRCVTCIKKLSVAEKLEVVSNGERVHRVRNRLKAKCSLCRLYAI
notes: also called HPV 1a E6; cbe_251919
binding result [3]: binds | binding result [4]: binds | binding result [5]: binds

B4: Human Papillomavirus 1a E7 (other)
chain: MVGEMPALKDLVLQLEPSVLDLDLYCYEEVPPDDIEEELVSPQQPYAVVASCAYCEKLVRLTVLADHSAIRQLEELLLRSLNIVCPLCTLQRQ
notes: also called HPV 1a E7; cbe_251925
binding result [6]: binds | binding result [7]: binds | binding result [8]: binds | binding result [9]: binds | binding result [10]: binds

B5: isovaleryl Coenzyme A dehydrogenase (enzyme)
chain: HSLLPVDDAINGLSEEQRQLRQTMAKFLQEHLAPKAQEIDRSNEFKNLREFWKQLGNLGVLGITAPVQYGGSGLGYLEHVLVMEEISRASGAVGLSYGAHSNLCINQLVRNGNEAQKEKYLPKLISGEYIGALAMSEPNAGSDVVSMKLKAEKKGNHYILNGNKFWITNGPDADVLIVYAKTDLAAVPASRGITAFIVEKGMPGFSTSKKLDKLGMRGSNTCELIFEDCKIPAANILGHENKGVYVLMSGLDLERLVLAGGPLGLMQAVLDHTIPYLHVREAFGQKIGHFQLMQGKMADMYTRLMACRQYVYNVAKACDEGHCTAKDCAGVILYSAECATQVALDGIQCFGGNGYINDFPMGRFLRDAKLYEIGAGTSEVRRLVIGRAFNADFH
notes: also called IVD; cbe_3800240
binding result [11]: binds

B6: Human papillomavirus 16 E6 (other)
chain: MHQKRTAMFQDPQERPRKLPQLCTELQTTIHDIILECVYCKQQLLRREVYDFAFRDLCIVYRDGNPYAVCDKCLKFYSKISEYRHYCYSLYGTTLEQQYNKPLCDLLIRCINCQKPLCPEEKQRHLDKKQRFHNIRGRWTGRCMSCCRSSRTRRETQL
notes: also called HPV 16 E6; HPV16 E6
binding result [12]: binds | binding result [13]: binds | binding result [14]: binds | binding result [15]: binds

Source: patent publication US20050100554A1 (published 2005)
